Source: publication PMC4626632, “The structure of Medicago truncatula δ^1-pyrroline-5-carboxylate reductase provides new insights into regulation of proline biosynthesis in plants” (Frontiers in Plant Science, 2015)

Key:
[1] = target: T1, δ^1-pyrroline-5-carboxylate reductase (MtP5CR) (Medicago truncatula, UniProt G7KRM5); test: NAD(P)H oxidation assay at […] nm, kinetic analysis of inhibition; assay type: biochemical
T1 construct: gene MTR_7g090160; MtP5CR_1, His6-tag cleaved; homodecamer

[2] = target: T1, δ^1-pyrroline-5-carboxylate reductase (MtP5CR); test: X-ray crystal structure of the cocrystallized complex ([…] Å); assay type: binding
[3] = target: the molecule itself; test: crystal structure; space group P1, one decamer in the asymmetric unit; 100 mM HEPES/MOPS pH 7.5, 10% PEG 4000, 20% glycerol, 30 mM MgCl2, 30 mM CaCl2, 19°C; unliganded and with NAD+, NADP+ or L-proline
[4] = substrate: O=C(O)C1CCC=N1; test: steady-state kinetics of the purified enzyme, KM(app); assay type: biochemical, Medicago truncatula; settings: NADPH C-terminal domain contains the P5C binding site
purified protein [5] = substrate: NC(=O)C1=CN([C@@H]2O[C@H](COP(=O)(O)OP(=O)(O)OC[C@H]3O[C@@H](n4cnc5c(N)ncnc54)[C@H](O)[C@@H]3O)[C@@H](O)[C@H]2O)C=CC1; test: purified protein; settings: varied: cofactor
purified protein [6] = substrate: NC(=O)C1=CN([C@@H]2O[C@H](COP(=O)(O)OP(=O)(O)OC[C@H]3O[C@@H](n4cnc5c(N)ncnc54)[C@H](OP(=O)(O)O)[C@@H]3O)[C@@H](O)[C@H]2O)C=CC1; test: purified protein; settings: varied: cofactor

Molecule `O=S(=O)(O)CCN1CCN(CCO)CC1` [HEPES, 2-[4-(2-hydroxyethyl)piperazin-1-yl]ethanesulfonic acid] has a Ki [1] of 1.83 ± 0.08 mM.

`NC(=O)c1ccc[n+]([C@@H]2O[C@H](COP(=O)([O-])OP(=O)(O)OC[C@H]3O[C@@H](n4cnc5c(N)ncnc54)[C@H](O)[C@@H]3O)[C@@H](O)[C@H]2O)c1` [NAD^+] was tested, and the “X-ray crystal structure of the cocrystallized complex (1.85 Å)” value [2] was “In the case of NAD^+ (Figure 8A), the adenine N1 atom interacts with Nδ of Asn65”.

B1: Medicago truncatula δ1-pyrroline-5-carboxylate reductase (enzyme, UniProt G7KRM5 1-274, looked up)
chain: MEIIPIPADSYTLGFIGAGKMAESIAKGAVRSGVLSPSRIKTAIHSNPARRTAFESIGITVLSSNDDVVRDSNVVVFSVKPQLLKDVVLKLKPLLTKDKLLVSVAAGIKMKDLQEWAGHERFIRVMPNTAATVGEAASVMSLGGAATEEDANLISQLFGSIGKIWKADDKYFDAITGLSGSGPAYIYLAIEALADGGVAAGLPRDLALSLASQTVLGAASMATQSGKHPGQLKDDVTSPGGTTIAGVHELEKAGFRGILMNAVVAAAKRSQELS
notes: P5C reductase (EC 1.5.1.2) of Medicago truncatula, isoform MtP5CR_1 (without the 29-residue insert of MtP5CR_2, A2Q2Y7); cDNA from leaf RNA; printed primers run from the ATG to the stop codon; monomer 28.5 kDa; Vector pMCSG68: His6 tag and TEV site at the N-terminus, cut off with TEV protease; Homodecamer (pentamer of dimers); also called MtP5CR; MtP5CR_1; source: E. coli BL21 Gold, purified …
With B1 the “stoichiometry N” value [3] was 10, the Km [4] was 20 ± 2 µM and the Km (purified protein [5]) was 468 ± 22 µM. The Vmax (purified protein [5]) was 92.4 ± 2.1 μkat (mg protein)^−1, the kcat (purified protein [5]) was 2972 s⁻¹ and the kcat/Km (purified protein [5]) was 6.35e+06 M⁻¹ s⁻¹. For the same molecule, the Km (purified protein [6]) was 39 ± 3 µM, the Vmax (purified protein [6]) was 36.1 ± 0.7 μkat (mg protein)^−1 and the kcat (purified protein [6]) was 1113 s⁻¹. The kcat/Km (purified protein [6]) was 2.85e+07 M⁻¹ s⁻¹.
